Laboratory results from patent US20260103490A1 (published 2026).
Where a chain is given by its changes, count along the chain named.

T1: ALFA^ST peptide (Ac-PSRLEEELRRRLTEP-Amide)
T1 construct: also called free ALFA^ST peptide; ALFA peptide
T1 peptide: Ac-PSRLEEELRRRLTEP-NH2

B1: NbALFA^ST (NbALFA clone 1G5) (VHH)
VHH: EVQLQESGGGLVQPGGSLRLSCTASGVTISALNAMAMGWYRQAPGERRVMVAAVSERGNAMYRESVQGRFTVTRDFTNKMVSLQMDNLKPEDTAVYYCHVLEDRVDSFHDYWGQGTQVTVSS
notes: Alpaca single-domain antibody; also called ALFA Selector^ST (resin-immobilised form); FluoTag-X2 anti-ALFA (fluorophore-coupled form)
B2: NbALFA^PE (NbALFA mutant for Peptide Elution) (VHH)
VHH: B1 VHH with R47E, E56S
notes: Weaker mutant of NbALFA^ST; used immobilised on agarose (ALFA Selector^PE) or in solution (MST); also called ALFA Selector^PE (resin-immobilised form)

Tests used:
FLAG-HA-MBP-myc-ALFA^ST = assay: dot blot of a dilution series of the MBP fusion
Description: Membranes were scanned using Odyssey CLx (Li-COR). Quantifications were performed using ImageStudioLight (Li-COR).

[1] = target: T1, ALFA^ST peptide …; assay: competitive elution of shGFP2-ALFA^ST from NbALFA^PE resin

Row | Binder | fold lower detection limit than for the other epitope tags (FLAG-HA-MBP-myc-ALFA^ST) [fold] | binding result [1]
1 | B1 | ~10 | 
2 | B2 |  | binds
